Source: US20210246195A1 (CZ BIOHUB SF, published 2021)
Where a chain is given by its changes, count along the chain named.

B1: PA01P2B03 (antibody, V domains shown)
VH: EVQLVQSGAEVKKPGESLKISCKGSGYNFTSSWIGWVRQMPGKGLEWMGIIHPGDSDTRYSPSFQGQVTISADKSLTTAFLQWSSLKTSDTAIYYCARHGSTMLWGDAFDIWGQGTMVTVSS
VL: SYELTQPPSVSLSPGQTARITCSGDALPKHYAYWYQQKPGQAPVLVIYKDTERPSGIPERFSGSSSGTTVTLTISGVQAEDEADYYCQSSDSTGEVFGGGTKLTVL
notes: subject PA01; also called Clone PA01P2B03
B2: PA01P2A05 (antibody, V domains shown)
VH: QVQLQESGPGLVKPSQTLSLTCTVSGGSMRSGDYYWSWIRQPPGKGLEWIGYIYFTGSSYYNPSLKSRATISVDTSKNQFSLKLNSVTAADTAVYFCARGVDVDLTFFDCWGHGTLVTVSS
VL: SYVLTQPPSVSLAPGKTARITCGGNNIGNKSVHWYQQKPGQAPVLVIYYDSDRPSGIPERFSGSNSGNTATLTINRVEAGDEADYHCQVWDSSTDHRVFGEGTKLTVL
notes: subject PA01; also called Clone PA01P2A05
B3: PA01P2E06 (antibody, V domains shown)
VH: HVQLVQSGADVKKPGSSVKVSCKFSGGTFNNDSINWVRQAPGQGLEWMGVIMPFFGATRFAPKFQGRVTLTADKFTSTGYMELGSLKSDDTAVYYCARDKPPDDKWADYGMDVWGQGTTVTVSS
VL: SYELTQPPSVSVSPGQTARITCSGDALPKQYVYWYQQKTGQAPVLVIYKDTERPSGIPERFSGSTSGTTVTLTISGVQADDEADYFCQSADRNANYRVFGGGTKLTVL
notes: subject PA01; also called Clone PA01P2E06
B4: PA01P1D06 (antibody, V domains shown)
VH: QVTLRESGPALVEVTQTVTLTCNFSGFSLHTRGMYVNWIRQPPGKALEWLAVINWDDDKYYTPSLKNRLTISKDTSKNQVVLTMTNMDPVDTATYYCARTDYGGYGPEGFDYWGQGTLVTVSS
VL: EIVMTQSPATLSVSPGESATLSCRASQSVRSNLAWYQQKPGQAPRLLIYGASTRAPGVPARFTGSESGREFTLTISSLQSEDFAVYYCQQYNNWPPYTFGQGTKLEIK
notes: subject PA01; also called Clone PA01P1D06
B5: PA01P2E07 (antibody, V domains shown)
VH: QLQLQESGSGLVKPSQTLSLTCAVSGGSITSGTYSWTWIRQSPEKGLEWIGYIYYTGSTYYNPSLGRRVTISGDTSNNEFSLNLKSVTAADTAVYYCARGIHRGGVLDFWGQGILVTVSS
VL: EIVLTQSPATLPLSPGERATLSCRASQSLDKYLAWYQQKPGQAPRLLIYDTSKRATGIPARFSGSGSGTDFTLTISSLEPEDFAVYFCQQRNNWPPYTFGQGTKVEMK
notes: subject PA01; also called Clone PA01P2E07
B6: PA01P2B04 (antibody, V domains shown)
VH: QVQLQQWGAGLLKPSETLSLTCTVIGTSFSNYYWSWIRQPPGKGLQWIGEITHSDSANYNPSLKSRVIISIDSSKNQLSLNLSSVTAADTAVYYCARGSKDYYDRSTFSWFDPWGQGTLVTVSS
VL: EIVMTQSPATLSVSPGERATLSCRASQNISNKLAWYQQKPGQAPRLLIYDASTRATGVPARFSCSVSGTAFTLTINRLQSEDFAVYYCQQYYYWPPPYTFGHGTKLEIK
notes: subject PA01; also called Clone PA01P2B04
B7: PA01P2A12 (antibody, V domains shown)
VH: QVQLVQSGAEVKKPGASVMLSCKASGYIFTNSDINWVRQAPGQGPEWMGWMNPKSGNTGYEQKFQGRVTMTTNTSISTAYMELSRLRSEDTAVYYCARSTGAVAGNFDYWGQGTPVTVSS
VL: EIVMTQSPATLSVSLGDRATLSCRASQSISRNLAWYQQKPGQAPRLLIYGASIRITDIPARFSGSGSGTEFTLTISSLQSEDFAIYFCQQYNNWRTFGQGTRVELK
notes: subject PA01; also called Clone PA01P2A12
B8: PA01P2C12 (antibody, V domains shown)
VH: HVQLQESGPGLVKSSETLSLTCNVSSDSFSDHYWSWVRQPAGKGLQWLGRIYNTGTTTYNPSLNRRITMSVDTSKNQFSLRLTSVTAADTAVYYCAARHYHYDKTIWGQGTLVTVSS
VL: NFMLTQPHSVSESPGKTVTISCTRSSGSIASNYVQWYQQRPGSPPTTVIYEDNQRPSGVPDRFSGSIDSSSNSASLTISGLKPEDEADFYCQSYDSDDREVFGGGTRLTVL
notes: subject PA01; also called Clone PA01P2C12
B9: PA01P2C05 (antibody, V domains shown)
VH: QLLLQESGPGLVKPSETLSLSCTVSAGSITSINYSWGWIRQPPGKGLEWIASVYFSGSIYYNPSLKSRVAISVDTSKNTFSLNLTSVTAADTAVYYCARLRLDTGRDSSGLSYREHFDYWAQGTLVTVSS
VL: DIQMTQSPSTLSASVGDRVTITCRASQSIGMWLAWFQQKPGKAPKLLIYKASTLESGVPSRFSGSGSGTEFTLTINSLQPDDFATYYCQQYNSYLFTFGPGTKVDIK
notes: subject PA01; also called Clone PA01P2C05
B10: PA01P2B10 (antibody, V domains shown)
VH: QVQLQQWGAGLLKPSETLSLTCGVHGGSLNNYYWSWIRQPPGKGLEWIGEVYHSGSINYNPSLKSRVTMSVDTSKNQFSFNLSSVTAADTAVYYCARGAYDSRGFWTLDAFNTWGQGTMVIVSS
VL: DIQMTQSPSALSASLGDRVTITCRASESINSWLAWYQQKPGKAPKLLIYKASTLESGVPSRFSGSGSGTEFTLTISSLQPDDFATYYCHQYNRYSYTFGQGTKLDIK
notes: subject PA01; also called Clone PA01P2B10
B11: PA11P1D12 (antibody, human IgG1, V domains shown)
VH: QVQLRVSGPGLVNPSETLSLTCIVSGDSLRDYYWSWIRQSPGKGLEWIGYVTESGGAHYNPSLESRVTISVDASKTQFSLNLKSVTAADTAVYYCARDAYSSTWYTVGWFDPWGPGSLVTVSS
VL: EIVLTQSPATLSLSPGERATLSCRASQDVGVYLAWYQQKPGQAPRLIIYDASDRVSGVPARFTGSGSGTDFTLTITSLEPEDFAVYFCQQRTSGLTFGGGTTLEIK
notes: human IgG1
B12: PA11P1F03 (antibody, human IgG1, V domains shown)
VH: QVQLQQWGAGLLKPSETLSLNCTVYHGSLSTSYWSWIRQPPGRGLEWIGEINDSGATNYNPSLKSRVIISVDTSKDQFSLKLTSVTAADTAMYYCARAPLLWVGESFFYYFDSWGQGILVTVSS
VL: DIQMTQSPSSLSASVGDRVSITCRAGQSIDTYLNWYQHKPGKAPDLLIYTTSTLHSGVPSRFSGSGSGTDFTLTITSLQPEDFAIYYCQQSYKSPYTFGQGTKVEIK
notes: human IgG1
B13: PA12P3C01 (antibody, human IgG1, V domains shown)
VH: QVQLVQSGAEVKKPGASVKVSCQASGYTFTRYDINWVRQATGQGLEWMGWLNPKSGDTGYAQKFQGRVTMTRDTSISTAYMELTSLTSDDTAVYYCARGVDANHWGQGSLVTVSS
VL: DIVVTQSPDSLAVSLGERATINCKSSQSIFDTSSNKNYLAWFRQRPGQPPQLLIYWASTRESGVPDRFSGSGSGTDFTLTISSLQAEDVAVYYCHQYYSLPHAFGQGTKLEIK
notes: human IgG1
B14: PA14P1D11 (antibody, human IgG1, V domains shown)
VH: EVQLLESGGGLVQPGGSLKLSCVASGFTFSSYAMMWVRQAPGKGLEWISSISSSGGSTYYADSVKGRFTISRDNSKNTLYLQMNSLRVEDTAVYYCAKSHCSTTSCPRAFYYYGMDVWGQGTTVTVSS
VL: DIQMTQSPSSLSASVGDRVTITCRASQTITTYLNWYQQKPGKAPKLLIYAASSLQSGVPSRFSGSGSGTDFTLSLSSLQPEDSATYYCQQSYSTLGAFGGGTKVEIK
notes: subject PA14; also called Clone PA14P1D11
B15: PA12P3E04 (antibody, human IgG1, V domains shown)
VH: EVKVVESGGGLVQPGGSLRLSCAASEFTFTYYWMSWIRQAPGKGLEWVANVNGDATEKYYVDSVKGRFTISRDNPKKTVYLQMNSLRVEDTAVYYCARVGTTVVNDGFDLWGLGTMVTVSS
VL: SYVLTQSHSVSVAPGQTARITCGGENIGGKGVHWYQQKPGQAPLLVVSSDTGRRSVTPDRFSGSNSGDTATLIISRVEAGDEADYYCQVWDPTSEYVFGSGTKVTVL
notes: human IgG1
B16: PA11P1C04 (antibody, human IgG1, V domains shown)
VH: QVQLQESGPGLVKPSETLSLTCTVSGGSISSYYWNWIRQPPGKGLEWIGYIYYSGSTNYNPSLKSRATISVDTSKNQFSLKLSSVTAADTAVYYCARANLFGVALRRVLGPFDYWGQGTLVTVSS
VL: DIQMTQSPSSLSASVGDRVTIACRASQSIANYLNWYQQKPGKAPKLLIYAASNLQSGVPSRFSGSGSGTDFTLTISSLQPEDFATYYCQQSYSTPYTFGQGTKLEIK
notes: human IgG1
B17: PA11P1G04 (antibody, human IgG1, V domains shown)
VH: EVQLVESGGGLVQPGGSLRLSCAASGFTFSSYWMSWVRQAPGKGLEWVANIKQDGSEKDYVDSVKGRFTISRDNAKNSLYLQLNSLRAEDTAVYYCARERSTQSSSWYVSSYYSYYGMDVWGQGTTVTVSS
VL: SSELTQDPAVSVALGQTVTITCQGDSLRSFYASWYQQKPGQAPVFVIYGKYNRPSGIPDRFSGSSSGNTASLTITGAQAEDEADYYCNSRDSSDNHLGVFGGGTKLTVL
notes: human IgG1
B18: PA11P1E01 (antibody, human IgG1, V domains shown)
VH: QVQLVQSGSELRRPGASVKVSCKTSGYAFTHFAMNWLRQAPGQGLEWLGWINTHSGNPTYAQGFTGRIVFSLDTSAGTAYLEISSLKAEDTAVYYCARERYFDFWGQGTLVAVSS
VL: QSVLTQPPSASGTPGQRVTISCSGTNSNIGKNFLYWYQQLPGTAPKLLIFSSNQRPSGVPDRFSGSKSGTSASLAISGLRSEDEADYYCAAWDDNLSGWVFGGGTKVTVL
notes: human IgG1
B19: PA11P1C11 (antibody, human IgG1, V domains shown)
VH: B18 VH with R13K, V20L, K23R, A28T, T30I, I68F, T74V, S85G, T109A
VL: B18 VL with N26S, L40V, F50Y, N95S
notes: human IgG1
B20: PA11P1C03 (antibody, human IgG1, V domains shown)
VH: EVQLVQSGGGLVKPGGSLRLSCAASGSTLTNYNINWVRQAPGKGLQWVSSISGTRDYTYYADSVVGRFTISRDNAKNSVYLQMNSLRAEDTAVYYCARGREVGGDYDSYDWGQGTLVTVSS
VL: DIQMTQSPSSLSASVGDRVTITCQASQDISTFLHWYQQKPGKAPSVLIYGASDLKTGVPSRFSGSGSGTHFTLTISSLQPEDIATYYCQQYDHLPLTFGGGTKVEIK
notes: human IgG1

These binders were tested against T1, BSA (UniProt P02769 25-607) (assay: indirect ELISA heat map, hIgG subtracted).
T1 construct: also called bovine serum albumin; immobilized BSA
T1 sequence (P02769 25-607 limits assumed): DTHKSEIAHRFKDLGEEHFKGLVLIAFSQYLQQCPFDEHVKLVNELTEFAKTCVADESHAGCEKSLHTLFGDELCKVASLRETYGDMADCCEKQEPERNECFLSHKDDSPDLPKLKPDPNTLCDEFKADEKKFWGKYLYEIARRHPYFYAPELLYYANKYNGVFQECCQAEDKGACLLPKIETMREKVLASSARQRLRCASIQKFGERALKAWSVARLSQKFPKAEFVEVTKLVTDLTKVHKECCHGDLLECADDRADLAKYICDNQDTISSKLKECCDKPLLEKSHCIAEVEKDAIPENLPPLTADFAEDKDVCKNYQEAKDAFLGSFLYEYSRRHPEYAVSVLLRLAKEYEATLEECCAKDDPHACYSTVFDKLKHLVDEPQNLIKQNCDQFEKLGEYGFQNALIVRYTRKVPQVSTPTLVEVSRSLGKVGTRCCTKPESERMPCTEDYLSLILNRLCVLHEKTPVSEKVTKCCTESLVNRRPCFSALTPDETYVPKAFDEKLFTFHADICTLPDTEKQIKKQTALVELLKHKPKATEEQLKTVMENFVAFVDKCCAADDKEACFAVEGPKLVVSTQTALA

Binding result, no binding (tested: 2 ng/µL):
B1
B2
B3
B4
B5
B6
B7
B8
B9
B10

Molecular target: T1, BSA
Experiment: indirect ELISA heat map, hIgG subtracted
Remark: another data set of the same source

Binding result, no binding (tested: 2 ng/µL):
B11
B12
B13
B14
B15
B16
B17
B18
B19
B20
